Test system: PFFF3 cells
Assay: Treatment of Cas9/gRNA-modified PFFF3 cells during multiplex PERV pol genetic modification
Format: cell-based, porcine
Settings: FIG. 2
Experimental: Stable expression of Cas9 and the three sgRNAs was achieved by integrating a piggyBac transposon carrying these elements into the PFFF3 genome. The PFFF3 cell line was established expressing a Piggybac-Cas9/3gRNAs construct. Cas9 and […] were carried in the same vector. Cas9 expression was induced by addition of doxycycline.
Methods described herein where cells are treated with PFTα and/or bFGF mitigate the stress from multiplex DNA damage and support clonal expansion of 100% PERV-free cells. Such DNA damage decreases targeting efficiency of the PFFF3 population over time and results in the inability to obtain 100% PERV-free PFFF3 clonal cell lines. Methods described herein are directed to inhibiting senescence and/or apoptosis pathways with small-molecule drugs so as to increase the targeting efficiency of the PFFF3 population and enhance viability of the highly edited clones. […] (See FIG. 1). […] (See FIG. 2). […] The distribution of the targeting efficiencies of single cell clones treated with PFTα and bFGF was approximately bimodal, and 100% PERV-free PFFF3 clonal cell lines were isolated. The eradication of pol activity was validated by RNA-seq with confirmation that all pol transcripts had been mutated.

B1: SV40 large T antigen: SV40 large T antigen, treatment also increasing targeting efficiency (protein, UniProt P03070 1-708, looked up)
Large T antigen: MDKVLNREESLQLMDLLGLERSAWGNIPLMRKAYLKKCKEFHPDKGGDEEKMKKMNTLYKKMEDGVKYAHQPDFGGFWDATEIPTYGTDEWEQWWNAFNEENLFCSEEMPSSDDEATADSQHSTPPKKKRKVEDPKDFPSELLSFLSHAVFSNRTLACFAIYTTKEKAALLYKKIMEKYSVTFISRHNSYNHNILFFLTPHRHRVSAINNYAQKLCTFSFLICKGVNKEYLMYSALTRDPFSVIEESLPGGLKEHDFNPEEAEETKQVSWKLVTEYAMETKCDDVLLLLGMYLEFQYSFEMCLKCIKKEQPSHYKYHEKHYANAAIFADSKNQKTICQQAVDTVLAKKRVDSLQLTREQMLTNRFNDLLDRMDIMFGSTGSADIEEWMAGVAWLHCLLPKMDSVVYDFLKCMVYNIPKKRYWLFKGPIDSGKTTLAAALLELCGGKALNVNLPLDRLNFELGVAIDQFLVVFEDVKGTGGESRDLPSGQGINNLDNLRDYLDGSVKVNLEKKHLNKRTQIFPPGIVTMNEYSVPKTLQARFVKQIDFRPKDYLKHCLERSEFLLEKRIIQSGIALLLMLIWYRPVAEFAQSIQSRIVEWKERLDKEFSLSVYQKMKFNVAMGIGVLDWLRNSDDDDEDSQENADKNEDGGEKNMEDSGHETGIDSQSQGSFQAPQSSQSVHDHNQPYHICRGFTCFKKPPTPPPEPET
average targeting efficiency of the resulting PFFF3 population: increased average targeting efficiency

Reference: patent publication US12325865B2, “Methods for increasing efficiency of gene editing in cells” (President and Fellows of Harvard College, priority 2017, dated 2025)
